Residue numbers refer to the chain shown, from its start. Numbers in names are those of the source.
Key:
Type in all cases: biochemical, Auricularia auricula-judae
[1] = substrate: CCn1c(=NN=c2sc3cc(S(=O)(=O)O)ccc3n2CC)sc2cc(S(=O)(=O)O)ccc21; experiment: steady-state kinetics, absorbance increase, Michaelis-Menten fit; conditions: 0.1 mM H2O2, 10 nM enzyme, 0.1 M tartrate pH 3, 25°C
Excerpt: (§1) steady-state kinetics, absorbance increase, Michaelis-Menten fit on DyP (dye-decolorizing peroxidase; mature DyP-I) of Auricularia auricula-judae

[2] = substrate: COc1cccc(OC)c1O; experiment: as above; conditions: 0.1 mM H2O2, 10 nM enzyme, 0.1 M tartrate pH 3, 25°C
Excerpt: as §1

[3] = substrate: Nc1c(N=Nc2ccc(S(=O)(=O)CCOS(=O)(=O)O)cc2)c(S(=O)(=O)O)cc2cc(S(=O)(=O)O)c(N=Nc3ccc(S(=O)(=O)CCOS(=O)(=O)O)cc3)c(O)c12; experiment: steady-state kinetics, absorbance decrease, Michaelis-Menten fit; conditions: single set of constants, 0.1 mM H2O2, 10 nM enzyme, 0.1 M tartrate pH 3, 25°C, pH 3.0
Excerpt: (§2) steady-state kinetics, absorbance decrease, Michaelis-Menten fit on DyP (dye-decolorizing peroxidase; mature DyP-I) of Auricularia auricula-judae

[4] = substrate: Nc1c(S(=O)(=O)O)cc(Nc2cccc(S(=O)(=O)CCOS(=O)(=O)O)c2)c2c1C(=O)c1ccccc1C2=O; experiment: as above; conditions: 0.1 mM H2O2, 10 nM enzyme, 0.1 M tartrate pH 3.5, 25°C
Excerpt: as §2

[5] = substrate: COc1ccc(CO)cc1OC; experiment: steady-state kinetics, absorbance increase, Michaelis-Menten fit; conditions: single set of constants, 0.1 mM H2O2, 100 nM enzyme, 0.1 M tartrate pH 2.5, 25°C, pH 2.5
Excerpt: as §1

[6] = single set (high-turnover site)
[7] = two-site kinetics: high-affinity low-turnover site
[8] = single set (high-turnover site, haem channel blocked), pH 3.5
[9] = two-site kinetics: high-affinity low-turnover site, pH 3.0
[10] = single set (low-turnover site), pH 3.0
[11] = single set (low-turnover site), pH 3.5
[12] = two-site kinetics: high-affinity low-turnover site, pH 3.5

B1: DyP (dye-decolorizing peroxidase; mature DyP-I) of Auricularia auricula-judae (Auricularia auricula-judae; G230L) (protein)
chain: ATSLNTDDIQGDILVGMHKQKQLFYFFAINDPATFKTHLASDIAPVVASVTQLSNVATQPLVALNIAFSNTGLLALGVTDNLGDSLFANGQAKDATSFKESTSSWVPQFAGTGIHGVIILASDTTDLIDQQVASIESTFGSSISKLYSLSASIRPGNEAGHEMFGFLDLIAQPAINGFNTPLPGQNIVDAGVIITGATNDPITRPSWAVGGSFLAFRQLEQLVPEFNKYLLDNAPAGSGSLQARADLLGARMVGRWKSGAPIDLTPTADDPALGADAQRNNNFTYSHAGFDLGSDQSHCPFSAHIRKTRPRADLGGSLTPPNLSAGANSIMRSGIPYGPEVTSAESASNTTTQERGLAFVAYQAQLSQGFHFLQQTWADNANFPPGKTPATVGLDPIIGQNNGQPRVVNGLLPSNSSASLSIPQFVVSHGGEYFFSPPISAIGGRLSA
notes: variants made on the same plasmid
Km [1, 6]: 25 ± 2 µM
kcat [1, 6]: 96 ± 2 s⁻¹
kcat/Km [1, 6]: 3.77e+06 ± 270000 M⁻¹ s⁻¹
Km [2, 7]: 6.0 ± 0.4 µM
kcat [2, 7]: 9.9 ± 0.2 s⁻¹
kcat/Km [2, 7]: 1.6e+06 ± 70000 M⁻¹ s⁻¹
Km [3]: 5.8 ± 0.6 µM
kcat [3]: 1.2 ± 0.1 s⁻¹
kcat/Km [3]: 217000 ± 13000 M⁻¹ s⁻¹
Km [4, 8]: 10 ± 3 µM
kcat [4, 8]: 106 ± 9 s⁻¹
kcat/Km [4, 8]: 1.24e+07 ± 3e+06 M⁻¹ s⁻¹

B2: DyP (dye-decolorizing peroxidase; mature DyP-I) of Auricularia auricula-judae (Auricularia auricula-judae; W438S) (protein)
chain: B1 chain with L169G, W377S
notes: as for B1
Km [1, 9]: 30.0 ± 0.5 µM
kcat [1, 9]: 14.0 ± 1.0 s⁻¹
kcat/Km [1, 9]: 472000 ± 61000 M⁻¹ s⁻¹
Km [2, 10]: 3560 ± 250 µM
kcat [2, 10]: 6.4 ± 0.1 s⁻¹
kcat/Km [2, 10]: 1800 ± 100 M⁻¹ s⁻¹
Km [5]: 7360 ± 1270 µM
kcat [5]: 0.23 ± 0.01 s⁻¹
kcat/Km [5]: 32 ± 3 M⁻¹ s⁻¹
Km [3]: 10.6 ± 1.0 µM
kcat [3]: 0.70 ± 0.02 s⁻¹
kcat/Km [3]: 68000 ± 4000 M⁻¹ s⁻¹
Km [4, 11]: 3.9 ± 0.6 µM
kcat [4, 11]: 8.9 ± 0.6 s⁻¹
kcat/Km [4, 11]: 2.24e+06 ± 240000 M⁻¹ s⁻¹

B3: DyP (dye-decolorizing peroxidase; mature DyP-I) of Auricularia auricula-judae (Auricularia auricula-judae) (protein)
chain: B1 chain with L169G
notes: as for B1
Km [1, 7]: 3.1 ± 1.1 µM
kcat [1, 7]: 7.4 ± 1.4 s⁻¹
kcat/Km [1, 7]: 2.37e+06 ± 420000 M⁻¹ s⁻¹
Km [2, 7]: 6.0 ± 0.5 µM
kcat [2, 7]: 8.0 ± 0.2 s⁻¹
kcat/Km [2, 7]: 1.35e+06 ± 100000 M⁻¹ s⁻¹
Km [3]: 15.6 ± 2.0 µM
kcat [3]: 4.8 ± 0.2 s⁻¹
kcat/Km [3]: 310000 ± 20000 M⁻¹ s⁻¹
Km [4, 12]: 14.0 ± 2.0 µM
kcat [4, 12]: 32.0 ± 3.0 s⁻¹
kcat/Km [4, 12]: 2.23e+06 ± 200000 M⁻¹ s⁻¹

B4: DyP (dye-decolorizing peroxidase; mature DyP-I) of Auricularia auricula-judae (Auricularia auricula-judae; Y398S) (protein)
chain: B1 chain with L169G, Y337S
notes: as for B1
Km [4, 7]: 7.4 ± 2.3 µM
kcat [4, 7]: 26.0 ± 1.9 s⁻¹
kcat/Km [4, 7]: 3.37e+06 ± 350000 M⁻¹ s⁻¹

— publication PMC4357238, “Catalytic surface radical in dye-decolorizing peroxidase: a computational, spectroscopic and site-directed mutagenesis study” (Biochemical Journal, 2015)
